Legend:
Assay in all cases: holdup assay
Parameters in all cases: key: below the threshold = too weak to quantify, mostly under pKd 3.1 to 4
DFNB31_1, Q9P202 = molecular target: T1, DFNB31_1, Q9P202; conditions: plain residues with an end cap or a label only (N-terminal biotin on a linker: ado-ado)
T1 sequence (Q9P202 135-233, limits assumed, looked up): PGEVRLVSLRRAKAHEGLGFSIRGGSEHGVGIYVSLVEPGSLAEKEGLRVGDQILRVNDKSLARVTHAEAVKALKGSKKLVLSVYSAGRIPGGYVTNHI

DLG4_1, P78352 = conditions: plain residues with an end cap or a label only (N-terminal biotin on a linker: ado-ado)
Sequence of DLG4_1, P78352 (P78352 62-152): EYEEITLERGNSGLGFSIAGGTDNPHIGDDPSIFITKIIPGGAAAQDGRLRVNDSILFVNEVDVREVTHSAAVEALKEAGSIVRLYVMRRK

HTRA1, Q92743 = conditions: plain residues with an end cap or a label only (N-terminal biotin on a linker: ado-ado)
Sequence of HTRA1, Q92743 (Q92743 360-477): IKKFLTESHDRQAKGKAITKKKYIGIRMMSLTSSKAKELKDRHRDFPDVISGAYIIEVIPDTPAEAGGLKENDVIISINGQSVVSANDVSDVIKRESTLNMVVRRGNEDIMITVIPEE

Inadl_8, Q8NI35 = conditions: plain residues with an end cap or a label only (N-terminal biotin on a linker: ado-ado)
Sequence of Inadl_8, Q8NI35 (Q8NI35 1425-1530): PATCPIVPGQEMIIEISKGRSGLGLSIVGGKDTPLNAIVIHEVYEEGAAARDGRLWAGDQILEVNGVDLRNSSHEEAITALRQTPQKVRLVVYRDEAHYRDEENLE

LNX1_1, Q8TBB1 = conditions: plain residues with an end cap or a label only (N-terminal biotin on a linker: ado-ado)
Sequence of LNX1_1, Q8TBB1 (Q8TBB1 261-371): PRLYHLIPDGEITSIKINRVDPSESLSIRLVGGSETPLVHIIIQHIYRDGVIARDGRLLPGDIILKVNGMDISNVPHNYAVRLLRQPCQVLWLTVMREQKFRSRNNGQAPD

MAGI1_2, Q96QZ7 = conditions: plain residues with an end cap or a label only (N-terminal biotin on a linker: ado-ado)
Sequence of MAGI1_2, Q96QZ7 (Q96QZ7 456-580): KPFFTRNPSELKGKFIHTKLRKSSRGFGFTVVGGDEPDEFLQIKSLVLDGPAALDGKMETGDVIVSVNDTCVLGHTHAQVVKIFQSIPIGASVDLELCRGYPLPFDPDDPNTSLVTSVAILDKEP

MAGI2_2, Q86UL8 = conditions: plain residues with an end cap or a label only (N-terminal biotin on a linker: ado-ado)
Sequence of MAGI2_2, Q86UL8 (Q86UL8 410-522): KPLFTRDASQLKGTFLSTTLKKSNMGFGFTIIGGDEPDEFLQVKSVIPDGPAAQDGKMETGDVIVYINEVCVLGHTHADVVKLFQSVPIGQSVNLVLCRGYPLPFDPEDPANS

MAGI2_5, Q86UL8 = conditions: plain residues with an end cap or a label only (N-terminal biotin on a linker: ado-ado)
Sequence of MAGI2_5, Q86UL8 (Q86UL8 915-1017): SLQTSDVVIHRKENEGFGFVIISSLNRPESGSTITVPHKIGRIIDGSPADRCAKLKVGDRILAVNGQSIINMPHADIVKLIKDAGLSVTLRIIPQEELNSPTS

MAGI3_2, Q5TCQ9 = conditions: plain residues with an end cap or a label only (N-terminal biotin on a linker: ado-ado)
Sequence of MAGI3_2, Q5TCQ9 (Q5TCQ9 398-503): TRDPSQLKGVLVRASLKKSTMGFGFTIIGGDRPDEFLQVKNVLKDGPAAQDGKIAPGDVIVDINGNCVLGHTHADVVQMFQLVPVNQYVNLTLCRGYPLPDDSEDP

PDZRN3_1, Q9UPQ7 = molecular target: T2, PDZRN3_1, Q9UPQ7; conditions: plain residues with an end cap or a label only (N-terminal biotin on a linker: ado-ado)
T2 sequence (Q9UPQ7 244-349, limits assumed, looked up): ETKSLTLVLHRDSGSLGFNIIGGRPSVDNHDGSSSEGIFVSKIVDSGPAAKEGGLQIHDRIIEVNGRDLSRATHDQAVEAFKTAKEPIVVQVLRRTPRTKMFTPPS

RHPN1, Q8TCX5 = molecular target: T3, RHPN1, Q8TCX5; conditions: plain residues with an end cap or a label only (N-terminal biotin on a linker: ado-ado)
T3 sequence (Q8TCX5 508-602, limits assumed, looked up): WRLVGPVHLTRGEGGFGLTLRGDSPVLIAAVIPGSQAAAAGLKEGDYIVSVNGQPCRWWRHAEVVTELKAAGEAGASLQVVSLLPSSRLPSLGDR

SCRIB_1, Q14160 = conditions: plain residues with an end cap or a label only (N-terminal biotin on a linker: ado-ado)
Sequence of SCRIB_1, Q14160 (Q14160 718-814): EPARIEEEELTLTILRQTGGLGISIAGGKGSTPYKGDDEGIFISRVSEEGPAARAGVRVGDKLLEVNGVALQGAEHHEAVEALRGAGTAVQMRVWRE

SNTA1, Q13424 = molecular target: T4, SNTA1, Q13424
T4 sequence (Q13424 82-180, limits assumed, looked up): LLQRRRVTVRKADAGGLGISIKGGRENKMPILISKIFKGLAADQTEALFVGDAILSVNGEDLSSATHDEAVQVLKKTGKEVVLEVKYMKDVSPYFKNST

TJP2_1, Q9UDY2 = conditions: plain residues with an end cap or a label only (N-terminal biotin on a linker: ado-ado)
Sequence of TJP2_1, Q9UDY2 (Q9UDY2 24-128): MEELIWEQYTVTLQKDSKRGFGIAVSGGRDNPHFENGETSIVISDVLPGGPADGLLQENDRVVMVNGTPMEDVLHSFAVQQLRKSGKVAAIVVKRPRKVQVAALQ

DLG2_3, Q15700 = conditions: plain residues with an end cap or a label only (N-terminal biotin on a linker: ado-ado)
LAP2, Q96RT1 = conditions: plain residues with an end cap or a label only (N-terminal biotin on a linker: ado-ado)
Sequence of LAP2, Q96RT1 (Q96RT1 other isoform, or with tags, fused parts or gaps): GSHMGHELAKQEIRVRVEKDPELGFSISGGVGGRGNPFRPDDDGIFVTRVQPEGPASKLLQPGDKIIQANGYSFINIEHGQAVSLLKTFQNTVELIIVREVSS

LIN7B, Q9HAP6 = molecular target: T5, LIN7B, Q9HAP6; conditions: plain residues with an end cap or a label only (N-terminal biotin on a linker: ado-ado)
T5 sequence (Q9HAP6 88-185, limits assumed, looked up): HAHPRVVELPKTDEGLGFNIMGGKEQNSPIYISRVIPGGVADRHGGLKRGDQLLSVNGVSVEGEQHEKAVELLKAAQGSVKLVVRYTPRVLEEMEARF

LIN7C, Q9NUP9 = molecular target: T6, LIN7C, Q9NUP9; conditions: plain residues with an end cap or a label only (N-terminal biotin on a linker: ado-ado)
T6 sequence (Q9NUP9 88-185, limits assumed, looked up): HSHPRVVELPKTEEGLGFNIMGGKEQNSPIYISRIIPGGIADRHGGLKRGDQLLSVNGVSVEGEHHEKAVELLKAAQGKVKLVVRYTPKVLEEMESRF

MPDZ_12, O75970 = molecular target: T7, MPDZ_12, O75970; conditions: plain residues with an end cap or a label only (N-terminal biotin on a linker: ado-ado)
T7 sequence (O75970 1857-1958, limits assumed, looked up): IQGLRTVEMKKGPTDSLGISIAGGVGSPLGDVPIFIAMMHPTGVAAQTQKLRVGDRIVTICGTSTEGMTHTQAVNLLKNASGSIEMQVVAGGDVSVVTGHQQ

PDLIM1, O00151 = conditions: plain residues with an end cap or a label only (N-terminal biotin on a linker: ado-ado)
Sequence of PDLIM1, O00151 (O00151 1-87): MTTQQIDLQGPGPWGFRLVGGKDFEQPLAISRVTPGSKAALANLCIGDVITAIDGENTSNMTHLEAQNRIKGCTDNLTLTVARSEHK

SCRIB_2, Q14160 = conditions: plain residues with an end cap or a label only (N-terminal biotin on a linker: ado-ado)
Sequence of SCRIB_2, Q14160 (Q14160 857-960): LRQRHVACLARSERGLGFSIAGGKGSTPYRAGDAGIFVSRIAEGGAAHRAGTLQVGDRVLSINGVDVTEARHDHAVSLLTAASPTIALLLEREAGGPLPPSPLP

MPDZ_10, O75970 = molecular target: T8, MPDZ_10, O75970; conditions: plain residues with an end cap or a label only (N-terminal biotin on a linker: ahx)
T8 sequence (O75970 1624-1722, limits assumed, looked up): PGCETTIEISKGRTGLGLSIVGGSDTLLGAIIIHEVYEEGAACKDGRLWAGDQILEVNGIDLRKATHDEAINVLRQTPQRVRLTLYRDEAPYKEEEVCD

PDZD7_3, Q9H5P4 = molecular target: T9, PDZD7_3, Q9H5P4; conditions: plain residues with an end cap or a label only (N-terminal biotin on a linker: ahx)
T9 sequence (Q9H5P4 857-944, limits assumed, looked up): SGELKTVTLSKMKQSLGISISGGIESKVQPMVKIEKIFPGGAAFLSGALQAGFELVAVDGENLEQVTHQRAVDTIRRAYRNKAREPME

ARHGAP21, Q5T5U3 = molecular target: T10, ARHGAP21, Q5T5U3; conditions: plain residues with an end cap or a label only (N-terminal biotin on a linker: ado-ado)
T10 sequence (Q5T5U3 45-169, limits assumed, looked up): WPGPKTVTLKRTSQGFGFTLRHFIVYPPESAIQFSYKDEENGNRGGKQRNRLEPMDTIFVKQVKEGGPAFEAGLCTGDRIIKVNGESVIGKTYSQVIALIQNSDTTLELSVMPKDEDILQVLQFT

HTRA2, O43464 = conditions: plain residues with an end cap or a label only (N-terminal biotin on a linker: ado-ado)
Sequence of HTRA2, O43464 (O43464 355-458): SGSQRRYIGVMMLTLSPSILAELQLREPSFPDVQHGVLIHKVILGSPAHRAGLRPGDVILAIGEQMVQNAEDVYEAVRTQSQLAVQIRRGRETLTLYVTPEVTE

HTRA3, P83110 = molecular target: T11, HTRA3, P83110; conditions: plain residues with an end cap or a label only (N-terminal biotin on a linker: ado-ado)
T11 sequence (P83110 354-453, limits assumed, looked up): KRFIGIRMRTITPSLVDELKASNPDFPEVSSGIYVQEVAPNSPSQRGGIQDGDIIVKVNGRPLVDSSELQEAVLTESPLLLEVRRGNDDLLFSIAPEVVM

IL16_4, Q14005 = conditions: plain residues with an end cap or a label only (N-terminal biotin on a linker: ado-ado)
Sequence of IL16_4, Q14005 (Q14005 1229-1329): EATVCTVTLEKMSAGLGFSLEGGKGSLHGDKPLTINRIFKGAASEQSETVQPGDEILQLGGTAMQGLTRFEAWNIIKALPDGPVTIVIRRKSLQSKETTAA

Inadl_3, Q8NI35 = conditions: plain residues with an end cap or a label only (N-terminal biotin on a linker: ado-ado)
Sequence of Inadl_3, Q8NI35 (Q8NI35 359-469): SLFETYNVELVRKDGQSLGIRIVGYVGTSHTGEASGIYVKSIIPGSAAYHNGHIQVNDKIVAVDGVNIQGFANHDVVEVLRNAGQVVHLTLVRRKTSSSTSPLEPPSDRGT

Inadl_9, Q8NI35 = conditions: plain residues with an end cap or a label only (N-terminal biotin on a linker: ado-ado)
Sequence of Inadl_9, Q8NI35 (Q8NI35 1530-1615): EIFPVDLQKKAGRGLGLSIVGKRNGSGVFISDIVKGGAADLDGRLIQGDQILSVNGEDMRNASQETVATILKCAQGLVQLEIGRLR

LNX1_2, Q8TBB1 = conditions: plain residues with an end cap or a label only (N-terminal biotin on a linker: ado-ado)
Sequence of LNX1_2, Q8TBB1 (Q8TBB1 371-470): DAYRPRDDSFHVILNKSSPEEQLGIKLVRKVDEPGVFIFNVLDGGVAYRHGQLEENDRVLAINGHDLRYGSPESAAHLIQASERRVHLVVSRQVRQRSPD

MAGI2_4, Q86UL8 = molecular target: MAGI2_4, Q86UL8
Sequence of MAGI2_4, Q86UL8 (Q86UL8 772-865): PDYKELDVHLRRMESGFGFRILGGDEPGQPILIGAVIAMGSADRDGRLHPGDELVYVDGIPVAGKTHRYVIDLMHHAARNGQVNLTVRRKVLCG

PARD3B_1, Q8TEW8 = molecular target: T12, PARD3B_1, Q8TEW8; conditions: plain residues with an end cap or a label only (N-terminal biotin on a linker: ado-ado)
T12 sequence (Q8TEW8 196-299, limits assumed, looked up): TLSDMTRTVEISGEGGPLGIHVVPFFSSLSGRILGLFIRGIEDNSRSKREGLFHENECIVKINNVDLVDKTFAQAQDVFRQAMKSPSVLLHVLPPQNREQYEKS

PTPN3, P26045 = conditions: plain residues with an end cap or a label only (N-terminal biotin on a linker: ado-ado)
Sequence of PTPN3, P26045 (P26045 505-587): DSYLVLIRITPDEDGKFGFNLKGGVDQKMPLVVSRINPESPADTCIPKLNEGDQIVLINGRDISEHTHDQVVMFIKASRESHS

SNTG2, Q9NY99 = molecular target: T13, SNTG2, Q9NY99; conditions: plain residues with an end cap or a label only (N-terminal biotin on a linker: ado-ado)
T13 sequence (Q9NY99 68-166, limits assumed, looked up): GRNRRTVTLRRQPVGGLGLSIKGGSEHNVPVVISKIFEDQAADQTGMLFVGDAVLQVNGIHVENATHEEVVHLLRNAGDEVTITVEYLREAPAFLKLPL

TJP1_2, Q07157 = conditions: plain residues with an end cap or a label only (N-terminal biotin on a linker: ado-ado)
Sequence of TJP1_2, Q07157 (Q07157 181-274): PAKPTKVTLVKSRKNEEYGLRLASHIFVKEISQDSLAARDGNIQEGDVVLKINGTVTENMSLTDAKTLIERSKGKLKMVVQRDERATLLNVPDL

ARHGEF12, Q9NZN5-2 = conditions: plain residues with an end cap or a label only (N-terminal biotin on a linker: ahx)
Sequence of ARHGEF12, Q9NZN5-2 (Q9NZN5 other isoform, or with tags, fused parts or gaps): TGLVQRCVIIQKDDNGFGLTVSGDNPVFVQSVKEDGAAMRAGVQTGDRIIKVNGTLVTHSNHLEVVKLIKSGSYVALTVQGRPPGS

DLG2_2, Q15700 = conditions: plain residues with an end cap or a label only (N-terminal biotin on a linker: ahx)
DLG3_3, Q92796 = molecular target: T14, DLG3_3, Q92796; conditions: plain residues with an end cap or a label only (N-terminal biotin on a linker: ahx)
T14 sequence (Q92796 374-475, limits assumed, looked up): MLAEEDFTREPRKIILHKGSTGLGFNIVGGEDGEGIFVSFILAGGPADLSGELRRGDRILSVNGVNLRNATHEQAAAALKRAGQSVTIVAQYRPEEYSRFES

PARD3_3, Q8TEW0 = conditions: plain residues with an end cap or a label only (N-terminal biotin on a linker: ahx)
Sequence of PARD3_3, Q8TEW0 (Q8TEW0 582-685): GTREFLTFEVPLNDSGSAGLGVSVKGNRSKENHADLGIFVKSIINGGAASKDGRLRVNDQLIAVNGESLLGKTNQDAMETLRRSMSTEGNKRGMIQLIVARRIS

SHANK1, Q9Y566 = molecular target: T15, SHANK1, Q9Y566; conditions: plain residues with an end cap or a label only (N-terminal biotin on a linker: ahx)
T15 sequence (Q9Y566 658-767, limits assumed, looked up): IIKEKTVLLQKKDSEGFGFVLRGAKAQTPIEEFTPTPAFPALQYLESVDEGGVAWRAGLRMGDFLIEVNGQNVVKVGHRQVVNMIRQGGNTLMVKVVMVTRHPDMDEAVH

SNTB1, Q13884 = molecular target: T16, SNTB1, Q13884; conditions: plain residues with an end cap or a label only (N-terminal biotin on a linker: ahx)
T16 sequence (Q13884 107-205, limits assumed, looked up): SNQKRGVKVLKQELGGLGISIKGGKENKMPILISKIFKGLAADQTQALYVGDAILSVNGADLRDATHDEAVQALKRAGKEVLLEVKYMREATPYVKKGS

SNX27, Q96L92 = conditions: plain residues with an end cap or a label only (N-terminal biotin on a linker: ahx)
SYNJ2BP, P57105 = molecular target: T17, SYNJ2BP, P57105; conditions: plain residues with an end cap or a label only (N-terminal biotin on a linker: ahx)
T17 sequence (P57105 8-110, limits assumed, looked up): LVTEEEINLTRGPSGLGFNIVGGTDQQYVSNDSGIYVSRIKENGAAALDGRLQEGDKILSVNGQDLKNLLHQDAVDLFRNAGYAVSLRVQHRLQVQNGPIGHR

[1] = plain residues with an end cap or a label only (N-terminal biotin on a linker: ado-ado)
[2] = plain residues with an end cap or a label only (N-terminal biotin on a linker: ahx)

A pKd (DFNB31_1, Q9P202) of 3.73, a pKd (DLG4_1, P78352) of 3.51 and a pKd (HTRA1, Q92743) of 3.73 were found for LPAHHNATRL [SLC34A1, Q06495] in this work. It also gave a pKd (Inadl_8, Q8NI35) of 3.52, a pKd (LNX1_1, Q8TBB1) of 3.72 and a pKd (MAGI1_2, Q96QZ7) of 3.8. It also gave a pKd (MAGI2_2, Q86UL8) of 3.87, a pKd (MAGI2_5, Q86UL8) of 3.69 and a pKd (MAGI3_2, Q5TCQ9) of 3.69. It also gave a pKd (PDZRN3_1, Q9UPQ7) of 3.77, a pKd (RHPN1, Q8TCX5) of 3.82 and a pKd (SCRIB_1, Q14160) of 3.82. For the same binder, the pKd (SNTA1, Q13424; [1]) was 3.71 and the pKd (TJP2_1, Q9UDY2) was 3.54.

A pKd (DLG2_3, Q15700) of 3.66, a pKd (HTRA1, Q92743) of 3.62 and a pKd (LAP2, Q96RT1) of 3.53 were found for YLEPVLSSEL [ATP2A2, P16615] in this work. The pKd (LIN7B, Q9HAP6) was 3.83, the pKd (LIN7C, Q9NUP9) was 3.8 and the pKd (MPDZ_12, O75970) was 3.55. It also gave a pKd (PDLIM1, O00151) of 3.48, a pKd (PDZRN3_1, Q9UPQ7) of 3.7 and a pKd (SCRIB_2, Q14160) of 3.56.

A pKd (MPDZ_10, O75970) of 3.76 and a pKd (PDZD7_3, Q9H5P4) of 3.48 were found for PSASCAVTAA [PDLIM4, P50479] in this work.

A pKd (ARHGAP21, Q5T5U3) of 3.8, a pKd (HTRA2, O43464) of 3.69 and a pKd (HTRA3, P83110) of 3.62 were found for VYPNAKVELV [PDLIM4_iso2, P50479] in this work. It also gave a pKd (IL16_4, Q14005) of 3.83, a pKd (Inadl_3, Q8NI35) of 3.54 and a pKd (Inadl_9, Q8NI35) of 3.57. For the same binder, the pKd (LNX1_2, Q8TBB1) was 3.54, the pKd (MAGI2_4, Q86UL8; [1]) was 3.56 and the pKd (PARD3B_1, Q8TEW8) was 3.6. It also gave a pKd (PTPN3, P26045) of 3.87, a pKd (SNTG2, Q9NY99) of 3.48 and a pKd (TJP1_2, Q07157) of 3.52.

A pKd (ARHGEF12, Q9NZN5-2) of 3.71, a pKd (DLG2_2, Q15700) of 3.71 and a pKd (DLG3_3, Q92796) of 3.57 were found for LSDPSVSTVV [GRIN1, Q05586] in this work. It also gave a pKd (MAGI2_4, Q86UL8; [2]) of 3.83, a pKd (PARD3_3, Q8TEW0) of 3.56 and a pKd (SHANK1, Q9Y566) of 3.72. It also gave a pKd (SNTA1, Q13424; [2]) of 3.68, a pKd (SNTB1, Q13884) of 3.55 and a pKd (SNX27, Q96L92) of 3.61. It also gave a pKd (SYNJ2BP, P57105) of 3.72.
